PMC8967061, “Mechanism of Borrelia immune evasion by FhbA-related proteins” (PLoS Pathogens, 2022)

T1: BhFhbA Glu198Ala (Borrelia hermsii YOR, UniProt W5SB08 44-202, Glu198Ala)
T1 construct: FhbA of Borrelia hermsii strain YOR, residues 44-202 as the wild type construct, single alanine mutant; also called #10; source: E. coli BL21 (DE), purified (Ni-NTA, size-exclusion chromatography)
T1 sequence (looked up): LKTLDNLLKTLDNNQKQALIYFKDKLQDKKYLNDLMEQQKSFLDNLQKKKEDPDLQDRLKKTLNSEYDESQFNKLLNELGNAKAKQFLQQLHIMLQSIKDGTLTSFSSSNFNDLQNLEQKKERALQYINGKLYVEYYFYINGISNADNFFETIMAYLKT

T2: BhFhbA Met137Ala (Borrelia hermsii YOR, UniProt W5SB08 44-202, Met137Ala)
T2 construct: FhbA of Borrelia hermsii strain YOR, residues 44-202 as the wild type construct, single alanine mutant; also called #4; source: E. coli BL21 (DE), purified (Ni-NTA, size-exclusion chromatography)
T2 sequence (looked up): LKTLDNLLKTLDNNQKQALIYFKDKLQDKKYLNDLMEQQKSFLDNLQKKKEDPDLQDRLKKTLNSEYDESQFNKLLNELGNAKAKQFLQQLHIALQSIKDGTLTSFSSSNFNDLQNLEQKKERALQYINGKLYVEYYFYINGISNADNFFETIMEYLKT

T3: BhFhbA Asn153Ala (Borrelia hermsii YOR, UniProt W5SB08 44-202, Asn153Ala)
T3 construct: FhbA of Borrelia hermsii strain YOR, residues 44-202 as the wild type construct, single alanine mutant; source: E. coli BL21 (DE), purified (Ni-NTA, size-exclusion chromatography)
T3 sequence (looked up): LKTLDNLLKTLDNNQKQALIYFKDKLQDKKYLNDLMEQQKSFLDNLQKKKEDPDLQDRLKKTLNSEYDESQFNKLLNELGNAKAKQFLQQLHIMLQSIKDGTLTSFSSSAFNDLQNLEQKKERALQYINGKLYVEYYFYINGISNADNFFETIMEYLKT

T4: BhFhbA Phe181Ala (Borrelia hermsii YOR, UniProt W5SB08 44-202, Phe181Ala)
T4 construct: FhbA of Borrelia hermsii strain YOR, residues 44-202 as the wild type construct, single alanine mutant; also called #9; source: E. coli BL21 (DE), purified (Ni-NTA, size-exclusion chromatography)
T4 sequence (looked up): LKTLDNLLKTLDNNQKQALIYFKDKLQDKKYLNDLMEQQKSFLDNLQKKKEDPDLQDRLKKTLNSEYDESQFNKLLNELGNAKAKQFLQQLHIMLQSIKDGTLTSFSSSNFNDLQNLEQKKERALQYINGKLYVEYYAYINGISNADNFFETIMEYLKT

T5: BhFhbA Glu178Ala (Borrelia hermsii YOR, UniProt W5SB08 44-202, Glu178Ala)
T5 construct: FhbA of Borrelia hermsii strain YOR, residues 44-202 as the wild type construct, single alanine mutant; source: E. coli BL21 (DE), purified (Ni-NTA, size-exclusion chromatography)
T5 sequence (looked up): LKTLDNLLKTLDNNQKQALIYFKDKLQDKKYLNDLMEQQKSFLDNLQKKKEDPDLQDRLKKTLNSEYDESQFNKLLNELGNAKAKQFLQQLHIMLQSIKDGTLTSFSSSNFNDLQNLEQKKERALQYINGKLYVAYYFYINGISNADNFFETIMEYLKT

T6: BhFhbA Ile171Ala (Borrelia hermsii YOR, UniProt W5SB08 44-202, Ile171Ala)
T6 construct: FhbA of Borrelia hermsii strain YOR, residues 44-202 as the wild type construct, single alanine mutant; source: E. coli BL21 (DE), purified (Ni-NTA, size-exclusion chromatography)
T6 sequence (looked up): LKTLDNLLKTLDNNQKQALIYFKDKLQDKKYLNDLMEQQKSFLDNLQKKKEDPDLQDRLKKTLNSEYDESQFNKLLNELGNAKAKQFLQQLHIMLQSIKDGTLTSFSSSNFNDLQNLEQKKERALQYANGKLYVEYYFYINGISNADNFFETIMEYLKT

T7: BhFhbA Phe85Ala (Borrelia hermsii YOR, UniProt W5SB08 44-202, Phe85Ala)
T7 construct: FhbA of Borrelia hermsii strain YOR, residues 44-202 as the wild type construct, single alanine mutant; also called #1; source: E. coli BL21 (DE), purified (Ni-NTA, size-exclusion chromatography)
T7 sequence (looked up): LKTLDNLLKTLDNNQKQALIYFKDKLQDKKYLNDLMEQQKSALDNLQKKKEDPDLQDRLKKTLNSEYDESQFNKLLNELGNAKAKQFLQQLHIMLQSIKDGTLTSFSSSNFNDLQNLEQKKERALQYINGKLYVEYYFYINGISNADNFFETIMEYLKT

T8: BhFhbA Lys91Ala (Borrelia hermsii YOR, UniProt W5SB08 44-202, Lys91Ala)
T8 construct: FhbA of Borrelia hermsii strain YOR, residues 44-202 as the wild type construct, single alanine mutant; also called #3; source: E. coli BL21 (DE), purified (Ni-NTA, size-exclusion chromatography)
T8 sequence (looked up): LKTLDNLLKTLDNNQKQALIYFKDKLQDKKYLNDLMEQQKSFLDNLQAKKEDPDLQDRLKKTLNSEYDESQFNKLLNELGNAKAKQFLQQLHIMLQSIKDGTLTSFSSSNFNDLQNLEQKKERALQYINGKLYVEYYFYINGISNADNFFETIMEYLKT

T9: BhFhbA Asn88Ala (Borrelia hermsii YOR, UniProt W5SB08 44-202, Asn88Ala)
T9 construct: FhbA of Borrelia hermsii strain YOR, residues 44-202 as the wild type construct, single alanine mutant; also called #2; source: E. coli BL21 (DE), purified (Ni-NTA, size-exclusion chromatography)
T9 sequence (looked up): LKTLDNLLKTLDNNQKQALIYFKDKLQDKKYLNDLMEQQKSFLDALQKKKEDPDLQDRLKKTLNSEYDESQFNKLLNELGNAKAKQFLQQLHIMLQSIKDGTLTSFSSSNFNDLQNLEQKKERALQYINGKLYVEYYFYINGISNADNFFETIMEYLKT

B1: Factor H binding protein A (FhbA) from Borrelia hermsii, wild type (domain or fragment)
chain: LKTLDNLLKTLDNNQKQALIYFKDKLQDKKYLNDLMEQQKSFLDNLQKKKEDPDLQDRLKKTLNSEYDESQFNKLLNELGNAKAKQFLQQLHIMLQSIKDGTLTSFSSSNFNDLQNLEQKKERALQYINGKLYVEYYFYINGISNADNFFETIMEYLKT
notes: FhbA of Borrelia hermsii strain YOR, without its leader peptide, residues 44-202; also called BhFhbA; Wild type BhFhbA; source: E. coli BL21 (DE), purified (Ni-NTA, size-exclusion chromatography)

Key:
Conditions in all cases: both partners purified
[1] = target: T10, Factor H, full length (human, UniProt P08603 19-1231, RED-tris-NTA dye label (in the MST assays only)); assay: MST; full-length FH labelled with RED-tris-NTA dye, FhbA proteins titrated, PBS/0.025% Tween-20, 22 C
T10 construct: human complement factor H, 20 short consensus repeat domains; In the functional assays FH was that of whole blood or serum; also called FH; full-length FH; source: bought: Comptech (Complement Technologies), TX, USA

[2] = target: T1, BhFhbA Glu198Ala; assay: MST; FH19-20 labelled with RED-tris-NTA dye (300 nM stock, mixed 1:1 with ligand), FhbA proteins titrated, PBS/0.025% Tween-20, 22 C
[3] = target: T2, BhFhbA Met137Ala; assay: as above
[4] = target: T3, BhFhbA Asn153Ala; assay: as above
[5] = target: T4, BhFhbA Phe181Ala; assay: as above
[6] = target: T5, BhFhbA Glu178Ala; assay: as above
[7] = target: T6, BhFhbA Ile171Ala; assay: as above
[8] = target: B1; assay: as above
[9] = target: T7, BhFhbA Phe85Ala; assay: as above
[10] = target: T8, BhFhbA Lys91Ala; assay: as above
[11] = target: T9, BhFhbA Asn88Ala; assay: as above

| Binder | Kd [1] [nM] | Kd [2] [nM] | Kd [3] [nM] | Kd [4] [nM] | Kd [5] [nM] | Kd [6] [nM] | Kd [7] [nM] | Kd [8] [nM] | Kd [9] [nM] | Kd [10] [nM] | Kd [11] [nM] |
| --- | --- | --- | --- | --- | --- | --- | --- | --- | --- | --- | --- |
| B1 | 30 | – | – | – | – | – | – | – | – | – | – |
| Factor H domains 19-20 (domain or fragment, RED-tris-NTA dye label (in the MST assays only), human complement factor H, short consensus repeat domains 19-20, wild type; also called FH19-20; FH19-20 fragment) DSTGKCGPPPPIDNGDITSFPLSVYAPASSVEYQCQNLYQLEGNKRITCRNGQWSEPPKCLHPCVISREIMENYNIALRWTAKQKLYSRTGESVEFVCKRGYRLSSRSHTLRTTCWDGKLEYPTCAKR | – | 130 | 1000 | 73 | 33 | 100 | 380 | 82 | 110 | 110 | 110 |
